From patent publication US20120053119A1, “THERAPEUTIC METHOD FOR INCREASING PANCREATIC BETA CELL MASS” (priority 2009, published 2012)

Target: SDF-1 receptor CXCR4 on INS-1 clonal beta cells (UniProt O08565)
Assay: cell-based or functional assay

Chain of SDF-1 receptor CXCR4 on INS-1 clonal beta cells (O08565 whole entry): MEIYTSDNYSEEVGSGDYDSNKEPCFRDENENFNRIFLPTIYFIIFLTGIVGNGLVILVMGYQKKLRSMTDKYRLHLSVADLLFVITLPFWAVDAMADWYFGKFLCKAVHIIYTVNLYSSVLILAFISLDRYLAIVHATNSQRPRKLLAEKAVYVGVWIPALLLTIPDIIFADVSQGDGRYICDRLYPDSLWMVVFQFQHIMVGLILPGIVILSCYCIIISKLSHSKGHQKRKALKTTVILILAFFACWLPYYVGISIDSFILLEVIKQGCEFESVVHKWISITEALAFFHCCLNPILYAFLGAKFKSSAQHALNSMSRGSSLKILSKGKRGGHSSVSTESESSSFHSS

- Wnt signaling reporter assay (TOPflash/FOPflash luciferase) in INS-1 cells: 0.4 nM
Substance: stromal cell-derived factor-1 (SDF-1) (ligand)
